“And” between values parts separate entries of the source, which are not always exact repeats. Equal entries are not always repeated.
What was measured:
[1] = target: recombinant His-tagged Can f1 (dog (Canis familiaris)) (UniProt O18873); experiment: serum ELISA, 1:16K, Alpaca 1 block
[2] = target: recombinant His-tagged Can f2 (dog (Canis familiaris)) (UniProt O18874); experiment: serum ELISA, 1:16K, Alpaca 1 block
[3] = target: Can f2-sumo-His (dog (Canis familiaris)) (UniProt O18874); experiment: serum ELISA, 1:16K, Alpaca 1 block
Sequence of Can f2-sumo-His (dog (Canis familiaris)) (O18874 19-180): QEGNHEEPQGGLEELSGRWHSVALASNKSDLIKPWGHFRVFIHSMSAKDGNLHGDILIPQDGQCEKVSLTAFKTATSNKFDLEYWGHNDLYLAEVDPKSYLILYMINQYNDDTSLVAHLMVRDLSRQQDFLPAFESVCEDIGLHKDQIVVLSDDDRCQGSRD

[4] = target: T1, recombinant His-tagged Der p2 (dust mite, UniProt P49278 18-146); experiment: serum ELISA, 1:16K, Alpaca 1 block
T1 construct: also called Der p2-His; Der p2-HIS; not shown: His tag
T1 sequence (looked up): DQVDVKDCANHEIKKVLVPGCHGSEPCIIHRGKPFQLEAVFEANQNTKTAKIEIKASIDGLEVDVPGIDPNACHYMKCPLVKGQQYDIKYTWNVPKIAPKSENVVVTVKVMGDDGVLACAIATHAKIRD

[5] = target: recombinant His-tagged Can f1 (dog (Canis familiaris)) (UniProt O18873); experiment: serum ELISA, 1:16K, Alpaca 2 block
[6] = target: recombinant His-tagged Can f2 (dog (Canis familiaris)) (UniProt O18874); experiment: serum ELISA, 1:16K, Alpaca 2 block
[7] = target: Can f2-sumo-His (dog (Canis familiaris)) (UniProt O18874); experiment: serum ELISA, 1:16K, Alpaca 2 block
[8] = target: T1, recombinant His-tagged Der p2; experiment: serum ELISA, 1:16K, Alpaca 2 block
[9] = target: recombinant His-tagged Can f1 (dog (Canis familiaris)) (UniProt O18873); experiment: serum ELISA, 1:64K, Alpaca 1 block
[10] = target: recombinant His-tagged Can f2 (dog (Canis familiaris)) (UniProt O18874); experiment: serum ELISA, 1:64K, Alpaca 1 block
[11] = target: Can f2-sumo-His (dog (Canis familiaris)) (UniProt O18874); experiment: serum ELISA, 1:64K, Alpaca 1 block
[12] = target: T1, recombinant His-tagged Der p2; experiment: serum ELISA, 1:64K, Alpaca 1 block
[13] = target: recombinant His-tagged Can f1 (dog (Canis familiaris)) (UniProt O18873); experiment: serum ELISA, 1:8K, Alpaca 2 block
[14] = target: recombinant His-tagged Can f2 (dog (Canis familiaris)) (UniProt O18874); experiment: serum ELISA, 1:8K, Alpaca 2 block
[15] = target: Can f2-sumo-His (dog (Canis familiaris)) (UniProt O18874); experiment: serum ELISA, 1:8K, Alpaca 2 block
[16] = target: T1, recombinant His-tagged Der p2; experiment: serum ELISA, 1:8K, Alpaca 2 block
[17] = target: recombinant His-tagged Can f1 (dog (Canis familiaris)) (UniProt O18873); experiment: serum ELISA, 1:4k, Alpaca 1 block
[18] = target: recombinant His-tagged Can f2 (dog (Canis familiaris)) (UniProt O18874); experiment: serum ELISA, 1:4k, Alpaca 1 block
[19] = target: Can f2-sumo-His (dog (Canis familiaris)) (UniProt O18874); experiment: serum ELISA, 1:4k, Alpaca 1 block
[20] = target: T1, recombinant His-tagged Der p2; experiment: serum ELISA, 1:4k, Alpaca 1 block
[21] = target: Can f2-sumo-His (dog (Canis familiaris)) (UniProt O18874); experiment: serum ELISA, 1:8K, Alpaca 1 block
[22] = target: recombinant His-tagged Can f1 (dog (Canis familiaris)) (UniProt O18873); experiment: serum ELISA, 1:1K, Alpaca 1 block
[23] = target: recombinant His-tagged Can f2 (dog (Canis familiaris)) (UniProt O18874); experiment: serum ELISA, 1:1K, Alpaca 1 block
[24] = target: Can f2-sumo-His (dog (Canis familiaris)) (UniProt O18874); experiment: serum ELISA, 1:1K, Alpaca 1 block
[25] = target: T1, recombinant His-tagged Der p2; experiment: serum ELISA, 1:1K, Alpaca 1 block
[26] = target: recombinant His-tagged Can f1 (dog (Canis familiaris)) (UniProt O18873); experiment: serum ELISA, 1:4k, Alpaca 2 block
[27] = target: recombinant His-tagged Can f2 (dog (Canis familiaris)) (UniProt O18874); experiment: serum ELISA, 1:4k, Alpaca 2 block
[28] = target: Can f2-sumo-His (dog (Canis familiaris)) (UniProt O18874); experiment: serum ELISA, 1:4k, Alpaca 2 block
[29] = target: T1, recombinant His-tagged Der p2; experiment: serum ELISA, 1:4k, Alpaca 2 block
[30] = target: recombinant His-tagged Can f1 (dog (Canis familiaris)) (UniProt O18873); experiment: serum ELISA, 1:32k, Alpaca 2 block
[31] = target: recombinant His-tagged Can f2 (dog (Canis familiaris)) (UniProt O18874); experiment: serum ELISA, 1:32k, Alpaca 2 block
[32] = target: Can f2-sumo-His (dog (Canis familiaris)) (UniProt O18874); experiment: serum ELISA, 1:32k, Alpaca 2 block
[33] = target: T1, recombinant His-tagged Der p2; experiment: serum ELISA, 1:32k, Alpaca 2 block
[34] = target: recombinant His-tagged Can f1 (dog (Canis familiaris)) (UniProt O18873); experiment: serum ELISA, 1:64K, Alpaca 2 block
[35] = target: recombinant His-tagged Can f2 (dog (Canis familiaris)) (UniProt O18874); experiment: serum ELISA, 1:64K, Alpaca 2 block
[36] = target: Can f2-sumo-His (dog (Canis familiaris)) (UniProt O18874); experiment: serum ELISA, 1:64K, Alpaca 2 block
[37] = target: T1, recombinant His-tagged Der p2; experiment: serum ELISA, 1:64K, Alpaca 2 block

Sequence of recombinant His-tagged Can f1 (dog (Canis familiaris)) (O18873 19-174 limits assumed): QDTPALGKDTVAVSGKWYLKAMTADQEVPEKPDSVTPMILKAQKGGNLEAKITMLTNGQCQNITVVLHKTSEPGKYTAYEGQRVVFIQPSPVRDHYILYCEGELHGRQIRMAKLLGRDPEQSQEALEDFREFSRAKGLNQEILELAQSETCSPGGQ
Sequence of recombinant His-tagged Can f2 (dog (Canis familiaris)) (O18874 19-180 limits assumed): as the sequence (O18874 19-180) above

Substance: Negative serum taken from naïve alpacas
- OD at 450 nm [1]: 0.101 OD and 0.11 OD
- OD at 450 nm [2]: 0.075 OD and 0.076 OD
- OD at 450 nm [3]: 0.071 OD
- OD at 450 nm [4]: 0.099 OD and 0.093 OD
- OD at 450 nm [5]: 0.101 OD and 0.098 OD
- OD at 450 nm [6]: 0.08 OD and 0.075 OD
- OD at 450 nm [7]: 0.074 OD and 0.081 OD
- OD at 450 nm [8]: 0.091 OD and 0.089 OD
- OD at 450 nm [9]: 0.103 OD
- OD at 450 nm [10]: 0.064 OD and 0.069 OD
- OD at 450 nm [11]: 0.057 OD and 0.058 OD
- OD at 450 nm [12]: 0.085 OD and 0.081 OD
- OD at 450 nm [13]: 0.108 OD and 0.111 OD
- OD at 450 nm [14]: 0.099 OD and 0.084 OD
- OD at 450 nm [15]: 0.083 OD and 0.079 OD
- OD at 450 nm [16]: 0.101 OD and 0.103 OD
- OD at 450 nm [17]: 0.137 OD and 0.147 OD
- OD at 450 nm [18]: 0.077 OD and 0.075 OD
- OD at 450 nm [19]: 0.071 OD and 0.072 OD
- OD at 450 nm [20]: 0.119 OD and 0.116 OD
- OD at 450 nm [21]: 0.072 OD
- OD at 450 nm [22]: 0.294 OD and 0.342 OD
- OD at 450 nm [23]: 0.128 OD and 0.133 OD
- OD at 450 nm [24]: 0.119 OD and 0.111 OD
- OD at 450 nm [25]: 0.246 OD and 0.255 OD
- OD at 450 nm [26]: 0.122 OD
- OD at 450 nm [27]: 0.108 OD and 0.101 OD
- OD at 450 nm [28]: 0.09 OD and 0.081 OD
- OD at 450 nm [29]: 0.113 OD
- OD at 450 nm [30]: 0.091 OD and 0.093 OD
- OD at 450 nm [31]: 0.075 OD and 0.068 OD
- OD at 450 nm [32]: 0.071 OD and 0.061 OD
- OD at 450 nm [33]: 0.082 OD
- OD at 450 nm [34]: 0.088 OD and 0.087 OD
- OD at 450 nm [35]: 0.07 OD and 0.062 OD
- OD at 450 nm [36]: 0.07 OD and 0.057 OD
- OD at 450 nm [37]: 0.071 OD and 0.079 OD
